Assay results as given in patent US20020199211A1 (CHILDREN S MEDICAL CENTER, published 2002).

Assays:
[1] = molecular target: T1, full length WASP cloned into the bait vector pGBT9 (Gal4 binding domain fusion) (UniProt P04386 1-147; P42768 1-502); assay: yeast two-hybrid (HF7c); - means no growth on selective medium
T1 construct: also called WAS protein
Description: (§1) Yeast transformation and colony analysis were performed according to the manufacturer's instructions (Matchmaker Two-Hybrid System Protocol, CLONTECH).

[2] = molecular target: Nck-GBT9 (full-length Nck in the bait vector pGBT9) (UniProt P04386 1-147; P16333 1-377); assay: as above
Description: as §1

binding result [1]	binding result [2]	Binder
no binding	no binding	pGAD424 without insert (Gal4 activation domain alone) (other, UniProt P04386 768-881, looked up, also called None (pGAD424)) ANFNQSGNIADSSLSFTFTNSSNGPNLITTQTNSQALSQPIASSNVHDNFMNNEITASKIDDGNNSKPLSPGWTDQTAYNAFGITTGMFNTTTMDDVYNYLFDDEDTPPNPKKE
no binding	no binding	human TRAF1 (amino acids 62-416) in pGAD424 (other, UniProt Q13077 62-416, looked up, not shown: large carriers, Control prey; also called tumor necrosis factor receptor-associated factor 1) LQSISPGSRLRTQEKAHPEVAEAGIGCPFAGVGCSFKGSPQSVQEHEVTSQTSHLNLLLGFMKQWKARLGCGLESGPMALEQNLSDLQLQAAVEVAGDLEVDCYRAPCSESQEELALQHFMKEKLLAELEGKLRVFENIVAVLNKEVEASHLALATSIHQSQLDRERILSLEQRVVELQQTLAQKDQALGKLEQSLRLMEEASFDGTFLWKITNVTRRCHESACGRTVSLFSPAFYTAKYGYKLCLRLYLNGDGTGKRTHLSLFIVIMRGEYDALLPWPFRNKVTFMLLDQNNREHAIDAFRPDLSSASFQRPQSETNVASGCPLFFPLSKLQSPKHAYVKDDTMFLKCIVETST
